The supplement of paper PMC10126150
± gives the standard deviation of the averaged measurements.

Tested on: ATP
Test: switch fluorescence ratio, 500 uM ATP over buffer (Cy3 cluster intensity, sum of 5 cycles each) (fold (ratio)); higher = stronger signal-on switching upon ATP binding; sequences stand for … in TCGTCGGCAGCGTCAGATGTGTATAAGAGACAGTTTTTTTTTTTTTTTTTTTTTTTTT…TC
Conditions: aptamer strand: ATP DNA aptamer (quencher-CACCTGGGGGAGTATTGCGGAGGAAGG + anchor), 100 nM annealed; ATP concentration: 500 uM
Method in brief: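 Cy3-labelled switching-strand clusters on a modified Illumina MiSeq flow-cell were annealed to 100 nM quencher-labelled ATP aptamer and imaged first in selection buffer, then after 15 min with 500 uM ATP at 22 °C. NaOH stripping and re-annealing separated each of five buffer/ATP cycles, and clusters outside 100-1000 RFU were excluded. The fluorescence ratio sums target-cycle Cy3 intensity over buffer-cycle Cy3 intensity per cluster and averages it per switch-domain sequence.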
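Note: ATP exposure 15 min at 22 °C before imaging.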

| Sequence | switch fluorescence ratio |
| --- | --- |
| TTTAAGCGCT | 0.979 ± 0.029 |
| TTTAAGCGGT | 0.996 ± 0.024 |
| TTTAAGGAAC | 1.03 ± 0.026 |
| TTTAAGGAGA | 0.993 ± 0.037 |
| TTTAAGGCAG | 1.005 ± 0.0023 |
| TTTAAGGGTG | 1.07 ± 0.037 |
| TTTAATAATG | 0.988 ± 0.036 |
| TTTAATAGCA | 1.01 ± 0.025 |
| TTTAATCATC | 1.01 ± 0.026 |
| TTTAATGCTG | 1.01 ± 0.021 |
| TTTAATGGGT | 1 ± 0.022 |
| TTTAATTGCG | 0.993 ± 0.012 |
| TTTACAGATA | 1 ± 0.018 |
| TTTACCGGAT | 1.05 ± 0.024 |
| TTTACCGGTT | 0.974 ± 0.07 |
| TTTACGACAC | 2.02 ± 0.14 |
| TTTACGCGGT | 1.03 ± 0.015 |
| TTTACGGATA | 1.349 ± 0.013 |
| TTTACGGATG | 1.044 ± 0.0036 |
| TTTACGGATT | 1.02 ± 0.048 |
| TTTACGGGGA | 1 ± 0.022 |
| TTTACGGTTC | 1.03 ± 0.054 |
| TTTACTAAGG | 1.03 ± 0.02 |
| TTTACTAATA | 1.02 ± 0.014 |
| TTTACTAGTT | 1.03 ± 0.037 |

| Sequence | switch fluorescence ratio |
| --- | --- |
| TTTACTCGCG | 1 ± 0.038 |
| TTTACTGGGC | 1.03 ± 0.022 |
| TTTACTGTTT | 1.01 ± 0.082 |
| TTTACTTCTC | 1.02 ± 0.032 |
| TTTAGAAAGG | 1 ± 0.025 |
| TTTAGAAGTG | 1.005 ± 0.0094 |
| TTTAGAATAT | 0.9885 ± 0.0018 |
| TTTAGAATCC | 1.03 ± 0.019 |
| TTTAGACA | 1.02 ± 0.053 |
| TTTAGACGAC | 1.04 ± 0.051 |
| TTTAGACTAG | 0.987 ± 0.017 |
| TTTAGAGATT | 1.01 ± 0.068 |
| TTTAGAGTAT | 0.992 ± 0.018 |
| TTTAGAGTTT | 0.997 ± 0.032 |
| TTTAGATAAC | 1.02 ± 0.044 |
| TTTAGATAGG | 0.98 ± 0.026 |
| TTTAGATTTA | 1.04 ± 0.042 |
| TTTAGATTTT | 0.998 ± 0.026 |
| TTTAGCAAAC | 3.53 ± 0.95 |
| TTTAGCATTT | 0.997 ± 0.014 |
| TTTAGCCCTT | 1.01 ± 0.037 |
| TTTAGCGGAT | 1.02 ± 0.019 |
| TTTAGCTGGG | 1.01 ± 0.019 |
| TTTAGCTGGT | 0.986 ± 0.033 |
| TTTAGCTTAA | 0.986 ± 0.021 |

| Sequence | switch fluorescence ratio |
| --- | --- |
| TTTAGGACAG | 1.01 ± 0.011 |
| TTTAGGCATG | 0.9966 ± 0.0076 |
| TTTAGGGACG | 0.955 ± 0.14 |
| TTTAGGGGG | 1.04 ± 0.067 |
| TTTAGGGGTA | 0.996 ± 0.018 |
| TTTAGGGGTC | 0.981 ± 0.024 |
| TTTAGGGTGG | 1.01 ± 0.012 |
| TTTAGGTACG | 1 ± 0.018 |
| TTTAGGTAGG | 1 ± 0.02 |
| TTTAGGTATG | 0.987 ± 0.03 |
| TTTAGGTTCC | 1.015 ± 0.005 |
| TTTAGTACTG | 1.05 ± 0.032 |
| TTTAGTAGGG | 1 ± 0.027 |
| TTTAGTCTGC | 0.993 ± 0.018 |
| TTTAGTGAG | 1.02 ± 0.011 |
| TTTAGTGGGT | 0.984 ± 0.026 |
| TTTAGTGTGG | 1.02 ± 0.044 |
| TTTAGTTAAG | 0.945 ± 0.038 |
| TTTAGTTCGG | 0.998 ± 0.027 |
| TTTAGTTTGG | 1 ± 0.031 |
| TTTATAACCT | 1.7 ± 0.61 |
| TTTATAAGGG | 0.995 ± 0.013 |
| TTTATACGGG | 1.02 ± 0.039 |
| TTTATACGT | 0.9783 ± 0.0067 |
| TTTATAGGGT | 1 ± 0.032 |

| Sequence | switch fluorescence ratio |
| --- | --- |
| TTTATAGGT | 0.9713 ± 0.0062 |
| TTTATAGTAT | 0.993 ± 0.03 |
| TTTATAGTTA | 0.979 ± 0.039 |
| TTTATATACG | 0.991 ± 0.017 |
| TTTATATATA | 1.005 ± 0.0095 |
| TTTATATATG | 1 ± 0.024 |
| TTTATATATT | 1.01 ± 0.028 |
| TTTATATC | 1.07 ± 0.11 |
| TTTATATGAG | 0.999 ± 0.044 |
| TTTATATTCG | 0.989 ± 0.033 |
| TTTATCAACG | 1.046 ± 0.0027 |
| TTTATCGATT | 0.991 ± 0.036 |
| TTTATCTGTG | 0.954 ± 0.019 |
| TTTATCTTGT | 0.9852 ± 0.0016 |
| TTTATCTTTG | 1 ± 0.027 |
| TTTATGAGAT | 1 ± 0.027 |
| TTTATGATTA | 1.035 ± 0.005 |
| TTTATGGCGT | 1.008 ± 0.0097 |
| TTTATGGCTT | 1.01 ± 0.046 |
| TTTATGGGAC | 0.999 ± 0.052 |
| TTTATGGGCA | 1.04 ± 0.05 |
| TTTATGGGTT | 0.985 ± 0.018 |
| TTTATGTAAG | 0.988 ± 0.065 |
| TTTATGTACG | 0.985 ± 0.054 |
| TTTATGTTTG | 1.01 ± 0.035 |
